Assay results published in patent publication US20240417687A1, “THYMIC CELLS AND METHODS OF MAKING” (Thymmune Therapeutics, Inc., priority 2021, published 2024).

Tests used:
TEP populations = test: Oct4 and Nanog expression in TEP populations treated with PluriSIn-1; type: cell-based, human
Procedure: On days 19-22, cells were cultured in TEC media. On day19, equal amount of freshly made TEC media (500 μl) was replaced gently without disturbing the aggregates. TEC media was prepared to include Basal Media: DMEM-F12, FGF10 (50 ng/ml), IL-22 (20 ng/ml), FGF7/KGF (50 ng/ml), RANKL/TRANCE (50 ng/ml), BMP4 (50 ng/ml), FGF8b (50 ng/ml), CHIRR99 (2 μM), Ascorbic Acid (10 μM), Insulin-Transferrin-Selenium (ITS-G) (1:1000), KSR (0.0025%), Pen strep (1:200), B27 (without VIT A) (1:200), Glutamax (1:100), BME (1:100), N2(1:100), NEAA (1:400), Glutamax (100×), and BME (100×). On day 20, equal amount of freshly prepared TEC media (500 ul) along with Plurisin #1(20 μM) was added (Groups-Untreated and Treated). On day21, equal amount of freshly made TEC media (500 ul) was replaced gently without disturbing the aggregates. On day22, the cells were treated with Accutase and were frozen using Hypothermosol-FRS Media. The cells were split into the following groups for experimentation. Group 37FT1 (8.85M Treated and 9.5M untreated groups) was thawed in 3D and maintained in TEC media (Y27-10 uM on day1) for 6 days. On Day 6, cells were treated with 20 μM Plurisin #1 (24 hours) and were transplanted on day7 into 4 animals. Group 37FT2 (8.85M per plate) was thawed in 3D and maintained in TEC media (Y27-10 uM on day1) for 6 days. […]

[1] = tested on: residual undifferentiated pluripotent cells; test: Teratoma formation after transplantation of TEP populations treated with YM155; type: in vivo; conditions: TEP population treated prior to transplantation versus not treated
Procedure: An important safety issues to address in iPSC-derived cell therapy products was the possible presence of residual undifferentiated pluripotent cells in the end. Such iPSCs in the product can give rise to teratomas. […] YM155, a Survivin inhibitor and PluriSIn-1, a stearoyl-CoA desaturase inhibitor was tested.

TEPs = test: Extended culture of TEPs with TEP medium supplemented with growth factors (Experiments 29, 30); type: cell-based, human; conditions: TEP medium supplemented with FGF7, FGF10 and RANKL together, Experiment 29 and 30
Procedure: For this differentiation step, VPE cells were cultured in thymic cell media e.g. TEP media or TEC media. On days 13-18, media was replaced for Experiment 29 TEP media containing Basal Media: DMEM-F12, FGF10 (50 ng/ml), BMP4 (50 ng/ml), FGF8b (50 ng/ml), CHIRR99 (2 μM), Ascorbic Acid (10 μM), Insulin-Transferrin-Selenium (ITS-G) (1:1000), KSR (0.0025%), Pen strep (1:200), B27 (without VIT A) (1:200), Glutamax (1:100), BME (1:100), N2(1:100), and NEAA (1:400). On day 13, equal amount of freshly made TEP media (500 ul) was added gently without disturbing the aggregates. On day 14-18, 50% of supernatant was removed and freshly prepared TEP media (500 ul) was added per well. On days 19-22, media was replaced with TEC media containing Basal Media: DMEM-F12, FGF10 (50 ng/ml), FGF7/KGF (50 ng/ml), RANKL/TRANCE (50 ng/ml), BMP4 (50 ng/ml), FGF8b (50 ng/ml), CHIRR99 (2 μM), Ascorbic Acid (10 μM), Insulin-Transferrin-Selenium (ITS-G) (1:1000), KSR (0.0025%), Pen strep (1:200), B27 (without VIT A) (1:200), Glutamax (1:100), BME (1:100), N2(1:100), NEAA (1:400), Glutamax (100×), and BME (100×). On days 20-22, 50% of supernatant was removed and freshly prepared TEC media (500 ul) was added per well. On day 22, Experiment 29B was reseeded as single cells in suspension (3D) and on Geltrex coated plates (2D). Remaining cells were frozen. Frozen Experiment 29B were thawed in suspension and maintained in TEC media.
For this differentiation step, VPE cells were cultured in thymic cell media e.g. TEP media or TEC media. […]
In experiments 16 through 23, the expression of FOXN1 and other markers expression by Day5 of TEP differentiation. […] In Exp 29-TEPs, FOXN1 expression was detected at week 1 of TEP stage. When TEPs were reseeded into 2D culture, no FOXN1 expression was detected after 1 week but FOXN1 was detected by week 2 in culture. In Exp29B-TEP2-3D, where single cell TEP were resuspended into 3D-aggregate culture, FOXN1 expression was detected already by 1 week and became even higher by second week.

[2] = tested on: Spheroids induced to differentiate from iPSC state to TEP; test: Effect of timing of BMP addition on developmental gene expression in spheroids differentiating from iPSC to TEP; type: cell-based, human; conditions: with or without BMP at early and late TEP stages
Excerpt: Differentiation of DE cells to thymic cells can be promoted by adding factors known to be important for DE to thymic differentiation. An example is BMP which is known to be crucial for the development and maturation of thymic progenitor cells from the third pharyngeal pouch. The impact of the timing of addition of BMP was explored (FIG. 2). Spheroids were induced to differentiate from iPSC state to TEP and timing of addition of BMP was varied. At different stages (DE, AFE, VPE, early and late TEP) spheroids were collected and analyzed for biomarkers related to the different stages. We compared condition with or without BMP at early and late TEP stages.

O=C(NNc1ccccc1)c1ccncc1 [PluriSIn-1]
Oct4 and Nanog expression (TEP populations; one 24-hour pulse before freezing and one 24-hr pulse after thawing, compared to one pulse): lower Oct4 and Nanog expression
Oct4 and Nanog expression (TEP populations; one dose alone, different iPSC cell line): sufficient to reduce Oct4 and Nanog expression

COCCn1c2c([n+](Cc3cnccn3)c1C)C(=O)c1ccccc1C2=O [YM155]
teratomas in vivo [1]: smaller teratomas

B1: FGF7: growth factor important for late maturation of TEPs to TECs (protein, UniProt P21781 32-194, looked up)
Fibroblast growth factor 7: CNDMTPEQMATNVNCSSPERHTRSYDYMEGGDIRVRRLFCRTQWYLRIDKRGKVKGTQEMKNNYNIMEIRTVAVGIVAIKGVESEFYLAMNKEGKLYAKKECNEDCNFKELILENHYNTYASAKWTHNGGEMFVALNQKGIPVRGKKTKKEQKTAHFLPMAIT
duration of TEP culture while maintaining the expression of FOXN1 (TEPs): extended beyond 5 days and up to 2 weeks

B2: BMP: growth factor BMP4, crucial for development and maturation of thymic progenitor cells (protein, UniProt P12644 293-408, looked up)
Bone morphogenetic protein 4: SPKHHSQRARKKNKNCRRHSLYVDFSDVGWNDWIVAPPGYQAFYCHGDCPFPLADHLNSTNHAIVQTLVNSVNSSIPKACCVPTELSAISMLYLDEYDKVVLKNYQEMVVEGCGCR
modifications: Bone morphogenetic protein 4
notes: growth factor BMP4, crucial for development and maturation of thymic progenitor cells
PAX1 and PAX9 expression [2]: suppressed
TBX1 and HOXA3 expression [2]: upregulated

B3: FGF10: growth factor important for late maturation of TEPs to TECs (protein, UniProt O15520 38-208, looked up)
Fibroblast growth factor 10: QALGQDMVSPEATNSSSSSFSSPSSAGRHVRSYNHLQGDVRWRKLFSFTKYFLKIEKNGKVSGTKKENCPYSILEITSVEIGVVAVKAINSNYYLAMNKKGKLYGSKEFNNDCKLKERIEENGYNTYASFNWQHNGRQMYVALNGKGAPRRGQKTRRKNTSAHFLPMVVHS
duration of TEP culture while maintaining the expression of FOXN1 (TEPs): extended beyond 5 days and up to 2 weeks

B4: RANKL: growth factor important for late maturation of TEPs to TECs (protein, UniProt O14788 140-317, looked up)
Tumor necrosis factor ligand …: IRAEKAMVDGSWLDLAKRSKLEAQPFAHLTINATDIPSGSHKVSLSSWYHDRGWAKISNMTFSNGKLIVNQDGFYYLYANICFRHHETSGDLATEYLQLMVYVTKTSIKIPSSHTLMKGGSTKYWSGNSEFHFYSINVGGFFKLRSGEEISIEVSNPSLLDPDQDATYFGAFKVRDID
duration of TEP culture while maintaining the expression of FOXN1 (TEPs): extended beyond 5 days and up to 2 weeks
